Assay results reported in patent US20230151091A1 (NEW YORK UNIVERSITY, published 2023).

Experiments:
[1] = molecular target: T1, hECD: full-length extracellular region of human MuSK (E22 to T495) with C-terminal Avi- and His6-tags (human, UniProt O15146 22-495, biotinylated in vitro using the BirA enzyme); assay: bead-binding titration, Fab format: antigen immobilized on streptavidin beads, MFI by flow cytometry, curve is the 1:1 fit
T1 construct: also called human ECD; not shown: Avi- and His6-tags
T1 sequence: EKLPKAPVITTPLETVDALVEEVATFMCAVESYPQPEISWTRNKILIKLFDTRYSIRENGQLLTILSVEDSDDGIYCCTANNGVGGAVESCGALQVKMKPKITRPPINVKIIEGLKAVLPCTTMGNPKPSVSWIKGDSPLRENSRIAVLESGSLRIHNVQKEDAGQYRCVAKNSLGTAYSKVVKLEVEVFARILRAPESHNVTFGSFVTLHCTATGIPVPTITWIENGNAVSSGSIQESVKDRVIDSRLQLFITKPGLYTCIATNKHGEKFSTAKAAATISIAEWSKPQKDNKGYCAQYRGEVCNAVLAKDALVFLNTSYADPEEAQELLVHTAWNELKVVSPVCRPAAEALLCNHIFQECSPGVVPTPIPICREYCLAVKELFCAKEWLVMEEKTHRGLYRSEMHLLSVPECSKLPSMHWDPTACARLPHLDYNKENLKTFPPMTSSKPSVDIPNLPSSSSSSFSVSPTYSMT

[2] = molecular target: T2, mECD: full-length extracellular region of mouse MuSK (E22 to T494) with C-terminal Avi- and His6-tags (mouse, UniProt Q61006 22-494, biotinylated in vitro using the BirA enzyme); assay: as above
T2 construct: range 22-494; also called mouse ECD; not shown: Avi- and His6-tags
T2 sequence (looked up): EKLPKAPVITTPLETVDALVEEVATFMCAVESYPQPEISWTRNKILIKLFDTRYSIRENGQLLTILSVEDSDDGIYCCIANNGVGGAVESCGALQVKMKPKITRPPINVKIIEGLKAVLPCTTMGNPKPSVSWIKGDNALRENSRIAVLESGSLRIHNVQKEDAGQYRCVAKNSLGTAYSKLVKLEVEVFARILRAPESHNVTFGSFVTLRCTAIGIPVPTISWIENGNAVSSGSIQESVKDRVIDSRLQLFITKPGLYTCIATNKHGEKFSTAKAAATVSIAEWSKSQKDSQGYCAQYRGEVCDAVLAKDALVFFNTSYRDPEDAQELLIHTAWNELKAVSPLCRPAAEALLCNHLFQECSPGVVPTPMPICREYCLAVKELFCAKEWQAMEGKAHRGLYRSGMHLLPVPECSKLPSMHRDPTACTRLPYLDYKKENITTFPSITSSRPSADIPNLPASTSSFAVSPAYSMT

[3] = molecular target: T3, mFz: Fz domain and C-terminal flanking sequence of mouse MuSK (D307 to T494) with C-terminal Avi- and … (mouse, UniProt Q61006 307-494, limits assumed, biotinylated in vitro using the BirA enzyme); assay: as above
T3 construct: also called mouse Fz; not shown: Avi- and His6-tags
T3 sequence (looked up): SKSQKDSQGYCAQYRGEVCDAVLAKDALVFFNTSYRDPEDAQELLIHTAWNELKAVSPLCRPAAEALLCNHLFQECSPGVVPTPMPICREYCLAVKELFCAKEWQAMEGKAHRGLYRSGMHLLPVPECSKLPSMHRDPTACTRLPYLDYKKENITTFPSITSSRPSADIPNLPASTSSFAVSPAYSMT

[4] = molecular target: T4, hFz: Fz domain and C-terminal flanking sequence of human MuSK (K314-T495) with C-terminal Avi- and His6-tags (human, UniProt O15146 314-495, biotinylated in vitro using the BirA enzyme); assay: as above
T4 construct: also called human Fz; not shown: Avi- and His6-tags
T4 sequence: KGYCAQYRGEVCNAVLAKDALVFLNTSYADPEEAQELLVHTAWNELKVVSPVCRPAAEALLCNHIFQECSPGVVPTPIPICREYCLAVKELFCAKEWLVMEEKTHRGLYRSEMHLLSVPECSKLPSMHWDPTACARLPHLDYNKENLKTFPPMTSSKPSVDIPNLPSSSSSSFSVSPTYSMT

[5] = molecular target: T1, hECD: full-length extracellular region …; assay: bead-binding assay, Fab format: biotinylated antigen on streptavidin beads, flow cytometry, 1:1 fit; average ± s.d., n=3
[6] = molecular target: T2, mECD: full-length extracellular region …; assay: as above
[7] = molecular target: T3, mFz: Fz domain and C-terminal flanking …; assay: as above
[8] = molecular target: T4, hFz: Fz domain and C-terminal flanking …; assay: as above
[9] = molecular target: T5, mouse MuSK, endogenous (C2C12 myotubes; neuromuscular synapses of mice) (mouse, UniProt Q61006 22-868); assay: cell-based or functional assay
T5 sequence (looked up): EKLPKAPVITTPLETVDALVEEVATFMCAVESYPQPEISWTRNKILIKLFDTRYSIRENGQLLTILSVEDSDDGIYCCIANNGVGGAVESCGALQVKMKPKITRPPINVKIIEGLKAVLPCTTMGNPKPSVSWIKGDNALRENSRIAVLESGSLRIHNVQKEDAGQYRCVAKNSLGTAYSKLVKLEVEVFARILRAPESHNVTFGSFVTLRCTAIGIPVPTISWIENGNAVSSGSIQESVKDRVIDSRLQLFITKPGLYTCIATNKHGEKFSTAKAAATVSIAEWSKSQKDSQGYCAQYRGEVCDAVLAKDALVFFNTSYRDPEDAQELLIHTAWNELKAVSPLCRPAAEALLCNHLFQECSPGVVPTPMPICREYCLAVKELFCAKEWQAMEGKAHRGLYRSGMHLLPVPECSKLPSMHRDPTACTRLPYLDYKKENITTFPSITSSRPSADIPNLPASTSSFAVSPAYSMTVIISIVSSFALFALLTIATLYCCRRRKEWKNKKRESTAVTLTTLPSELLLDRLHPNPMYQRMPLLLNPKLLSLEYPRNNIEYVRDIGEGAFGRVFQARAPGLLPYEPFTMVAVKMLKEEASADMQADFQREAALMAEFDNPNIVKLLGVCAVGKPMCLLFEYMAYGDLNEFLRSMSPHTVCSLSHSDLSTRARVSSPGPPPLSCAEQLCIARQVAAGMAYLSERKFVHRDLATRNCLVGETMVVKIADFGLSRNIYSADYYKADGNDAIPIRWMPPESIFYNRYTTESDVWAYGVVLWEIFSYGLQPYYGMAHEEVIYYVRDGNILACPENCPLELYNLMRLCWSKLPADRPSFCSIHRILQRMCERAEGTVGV

[10] = molecular target: T6, human MuSK (human, UniProt O15146 24-495); assay: Biacore, MuSK on chip (200RU), mAb dilution series
T6 construct: Recombinant protein coated on ELISA plates (R&D Systems cat. 10189-MK) or on the Biacore chip; also called human muscle-specific tyrosine protein kinase; full length human MuSK
T6 sequence: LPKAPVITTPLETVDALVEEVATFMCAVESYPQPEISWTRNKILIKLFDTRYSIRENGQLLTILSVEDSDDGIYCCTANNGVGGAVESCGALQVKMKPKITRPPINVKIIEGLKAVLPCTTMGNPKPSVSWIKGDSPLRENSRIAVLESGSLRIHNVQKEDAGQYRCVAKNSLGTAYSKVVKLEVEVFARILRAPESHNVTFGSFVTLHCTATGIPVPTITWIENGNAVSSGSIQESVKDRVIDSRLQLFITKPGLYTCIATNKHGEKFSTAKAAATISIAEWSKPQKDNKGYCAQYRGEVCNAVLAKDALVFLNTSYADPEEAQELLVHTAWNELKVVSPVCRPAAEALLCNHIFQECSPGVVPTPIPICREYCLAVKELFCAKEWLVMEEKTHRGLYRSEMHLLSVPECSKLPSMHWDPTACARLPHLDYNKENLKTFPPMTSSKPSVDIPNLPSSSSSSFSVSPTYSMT
Text: (§1) For affinity determination, a CMS chip was coated with either human or mouse MuSK (200RU) and a dilution series of the antibodies (mAbs and Fabs) was applied in order to be able to calculate the affinity.

[11] = molecular target: T7, mouse MuSK (mouse, UniProt Q61006 22-494, limits assumed); assay: Biacore, MuSK on chip (200RU), mAb dilution series
T7 construct: Coated on ELISA plates or on the Biacore chip; also called full length mouse MuSK; mouse MuSK (in house produced in HEK293 cells)
T7 sequence (looked up): T2 sequence (looked up)
Text: as §1

[12] = molecular target: T7, mouse MuSK; assay: Biacore, mAb
Text: as §1

B1: X13 Fab (Fab, V domains shown)
VH: EVQLVESGGGLVQPGGSLRLSCAASGFTISSSSIHWVRQAPGKGLEWVASISSSSGSTSYADSVKGRFTISADTSKNTAYLQMNSLRAEDTAVYYCARSSEHWYTIGYYGIDYWGQGTLVTVSS
VL: DIQMTQSPSSLSASVGDRVTITCRASQSVSSAVAWYQQKPGKAPKLLIYSASSLYSGVPSRFSGSRSGTDFTLTISSLQPEDFATYYCQQSYGSFSLITFGQGTKVEIK
notes: also called Fab Clone X13
[1]
  EC50 (read off the curve): ~2 nM
[2]
  EC50 (read off the curve): ~2 nM
[3]
  EC50 (read off the curve): ~2 nM
[4]
  EC50 (read off the curve): ~2 nM
[5]
  Kd: 2.39 nM
[6]
  Kd: 2.41 nM
[7]
  Kd: 1.56 nM
[8]
  Kd: 1.7 nM

B2: 30E1 (antibody, V domains shown)
VH: QVQVQESGPGLVKPSQTLSLTCTVSGGSITARYYSWSWIRQPPGKGLEWMGVIAYDGSTYYSPSLKSRTSISRDTSKNQFSLHLSSVTPDDTAVYYCARGSSRVAAAFDSWGQGTQVTVSS
VL: SYELTQSPSVSVALRRTAKITCGGDNIGSKNTQWYQQKPGQAPVLVIYADSRRPSGIPERFSGSNSGNTATLTISGAQAEDEADYYCHVWDSSTNAWFGGGTHLTVL
notes: human IgG1 with the LALA mutations (L234A, L235A); produced in HEK293 cells; also called 30E1 mAb
[9]
  % Phosphorylation Induced in C2C12 Mouse Assay, Assay 1: 66 % versus agrin
  % Phosphorylation Induced in C2C12 Mouse Assay, Assay 2: 82 % versus agrin
  % Phosphorylation Induced in C2C12 Mouse Assay, Assay 3: 50 % versus agrin
  % Phosphorylation Induced in C2C12 Mouse Assay, Average: 66 % versus agrin
[10]
  Kd: 0.011 nM
[11]
  Kd: 0.153 nM
[12]
  fold difference in affinity, human versus mouse MuSK: 10 fold

B3: 30A11 (antibody, V domains shown)
VH: B2 VH
VL: SYELTQSPSVTVALRQTAKITCGGDNIASKNVQWYQQKPGQAPSLVIWADSRRPSGIPVRFSGSNFGNTATLTISGAQAEDEADYYCQVWDSSTNVAVFGGGTHLTVL
notes: human IgG1 with the LALA mutations (L234A, L235A); produced in HEK293 cells; also called 30A11 mAb
[9]
  % Phosphorylation Induced in C2C12 Mouse Assay, Assay 1: 73 % versus agrin
  % Phosphorylation Induced in C2C12 Mouse Assay, Assay 2: 89 % versus agrin
  % Phosphorylation Induced in C2C12 Mouse Assay, Assay 3: 74 % versus agrin
  % Phosphorylation Induced in C2C12 Mouse Assay, Average: 79 % versus agrin
[10]
  Kd: 0.001 nM
[11]
  Kd: 0.11 nM
[12]
  fold difference in affinity, human versus mouse MuSK: 100 fold

B4: X6 Fab (Fab, V domains shown)
VH: EVQLVESGGGLVQPGGSLRLSCAASGFTFSSSSIHWVRQAPGKGLEWVASISSYSGYTYYADSVKGRFTISADTSKNTAYLQMNSLRAEDTAVYYCARTYGSYYVSSYTGMDYWGQGTLVTVSS
VL: DIQMTQSPSSLSASVGDRVTITCRASQSVSSAVAWYQQKPGKAPKLLIYSASSLYSGVPSRFSGSRSGTDFTLTISSLQPEDFATYYCQQSSSSLITFGQGTKVEIK
notes: also called Fab Clone X6
[1]
  EC50 (read off the curve): ~1 nM
[2]
  EC50 (read off the curve): ~0.6 nM
[3]
  EC50 (read off the curve): ~0.4 nM
[4]
  EC50 (read off the curve): ~1 nM
[5]
  Kd: 1.47 nM
[6]
  Kd: 0.59 nM
[7]
  Kd: 0.42 nM
[8]
  Kd: 0.9 nM
